This note sets out measurements from a protein production outcome set (Wang et al. 2014).

The nature of the data set: label from the status in PepcDB records.
As for “MRAHGRRVSKRQPDSPGRLRGAFGSRLHLSPLTRLPARPIWRPRAGCAVPLAGPGCDPAGFMLKSPSFPFSAPAMLRHLPMTYCAIDFGTSNSAVALPDGDGMRLAPVEGDHLTLPTAIFFNNDEQTVEYGRAALASYIDGFDGRLMRSMKSILGSPLAETTTDLGDGSAMAYTEIIARFLTHLKRKAEARAGAPIGRAVLGRPVFFVDEDPRADRLAQDQLEAAARSVGFTDVHFQYEPIAAAFDYESRQQAERLVLVADIGGGTSDFSLVRVGPERMARLERKDDVLAHHGVHVAGTDYDRRVELAAILPAFGYRALDPEGRELPNRIYFDLATWHLINTVYTPKRLGELKLMKHLYQDGRQHDRLMSVVEQRLGHALMARAEEAKIGVAAGGETMIDLNDVEEDLQIAFDAERLVEASVDDTARIVDAARETVRLAGVAPRDLGALYFTGGSTGLAFLSGALAGAFPDAQPVFGDRLASVATGLGIHAQRLFG”, the protein production entry is “failed”.
Take “MRAQMKQYNCHEGALPFTKSYLLRPLFNAFLMSPKPFHTTEACIGCKKCEKVCPVGNITVTDRPVWGGNCTQCLACYHVCPVHAVEYLEHHHHHH”: the protein production entry is recorded as “failed”.
With “MRARHASCMHPPSLSADPVALMTDTPASSETSASGWRRALPVIVSLAILAMALHALSSQFTDHGYRQIRHAFRALGAGQITLTLLLGLSSYVCLVGFDWVGLKRTGKQLHPARVGITAFMAHAVGQTLGFAALTGGAVRLRGYGSVGLTLAEIGQVVLMSTLGFIFGAWVLLGLALMLEPEAAARALPITAQAIRIAGIALLVGYVAMLMLVGRQGREFGIRSHRFWLPDRTTVLGVTALSVVELGLAAAAFYVLLPPDSGTGYFGFIGIWLVAVVAGLISTVPAGLGVFEWSLLELLPHVTPAAVLAAALVYRVTYYIVPLLISVAMAAASGLRVPVRVGASTARSVWKALRPWLPQILALAVFAVGAALVIDGTLPTPAARQEVAPLPLIETSHLLVSLGGMMLLLIGQGLQRRSHSAWMLALGVCLLVPPFALLRGSHISVSLSAALAAVALWAARREFYRQGALLDEAWSWRWLSNLGLVLVATFWLLFFVYSHVEYSNDLWWQFATSANAPRALRAALILCVGVIVFGMARLLRGGRRPMPAADAPTLRTLAPILATSTDTQACLALTGDKAFLLDEQSSGFVMMQRYGGSLISMGDPVGSPEVARALIWRFREEADQMGLRTVFYQVGEKHWQTYLDMGLTLVKLGEEAIVPLEGFTLEGRDRADLRQAWNRGKRGGLSFRMLQPEQVDEVLPRLAEVSDQWMEEKSGEEKGFSLGSFDADYLRRFPVAVAEAEGQIVAFANVWWAPAGGELSVDLMRHSAEAPKGTMDFLFIELFLWGQANGYTRFSLGMAPLSGLAEHRLAGRWNRFASLVARHGERFYGFSGLRRFKSKFDPTWRPRYLVAPGGMHLPAALLDVTRLISADPRRQE”, the protein production entry is reported as “failed”.
“MRCANCGNELKAGSLYCDVCGHPVQIVPDYNEFDDYLDNLVGNDDRRTDGQKTAKPVSDRTIRFDDPVREQLHSAGQWNGQKTDRMSQSVKQQVRQAQTGEQQSQTKQPCEKPQSDGQRAKRAQQKKIIIISAVVCAVAIVILIAAITRNVSRSHDNSFDYQVKQAKAAYSAGNINSAVSYYEKALSIDSDNTDVRFALADIYMSKKDYDAALVLYQEIINIDPKSKEAYKQLISIYESKKDYDAIVALRESAKDASVLKLFADYTVSKPQFSKSSGKYGETMELSIDADSDTKIYYSYDSDDPLTRGERYYSPITLDKEGTYEITAVAVDDRGIKSEVASAKYEIEFEAPDAPEIDPDGGTFGAQTDITITVPENCKVYYTWDSSDPSAASTEYTAPIPVPEGNNVLSVIAIDQNTGKCSDIYRSRFEFYMN”: the protein production result is listed as “failed”.
Take “MRDHPADRLQSITVTAFYQEPNVPTHSLSDYTSWIERTWQGQVSFTELVTYAETLNSHPALCAALYRTWLQRNTGVFNSVAWFNLGVILFAENNLIDSIEAFQKALALSPAFPQARINLGLALERQGNAEAAIEQWQAVVENAITPEADQNTGPNQADQIKNLTMALNNIGRLQETRRQYQAATQALEKSLQLDPDQPDAIHHLIFQRQKQCQWPVYAPVGKVTEAVLHEHTSALAMLNISDAPEAQLTAALNYSRRKIPADLPRLSPANGYRHDKIRVAYCSSDFCTHPVAMLTVELFEHHDKNRFETYAFCWSPDDGSTLRQRILSAVDHYIPVHGKSDDEVAQLIRQHEIDILIDLQGQTSGAKTRMLAMRPAPMQITYLGLPATTGLPGIDYVIADRYLIPEEYARFYSEKPLYMPDVYQVSDRKREHSPAPTRKDCGLPARKFVFCSFNNNHKYTLEVFTTWMNILRRVPNSVLWLLADNPWARENLQKQAKAQGIDPKRLVFAERTMPADYLARYLVADLFLDTFPFNAGTTANDALWMGLPVLTMSGRSFASRMAGALLTAADLPELITHDLQTYEDKAVALAADAKARKTMRQKLALAKESGPLFDSLRFTRNLEQQYIALVSELQNPSQHINISAQPEPTKLGEPAQPNPIIATVQEAEALQARGDTQGAIQLYRQWLEHAHSGDEWIAQFNLGVLLRDGGDITGAQQAFQAVLKQKPDFVQARAALGKLPAPVTTESQKHGAIIGPLQTNSPISTKSKEQITQIFSETPKIKLLVEGWRGINHSFALVNQYHLYEWMRSSQLHIYHRDMPLLFSHWETNKNRGNTGLPGTYSQRLAQVQHWSGQTYDACFRIYSPVTLAPDDKHPVSTFLVTELGLDETQIAHFRPNLKAYFNMGGNIVTPSHWSKERIIEAGIPAEHIHLISHGVASNIFHPMHSDERAIHRQRLGFDREAVIFLNVAAPIWNKGLDLLIQAFVQCFHQNPHTRLLIKDQQAVYGISTKDTVLREITLLGESKNESLLNAIRVIPDLNLLQLRELYCIADYYVSPYRAEGFNLPVIEALVCGTPVIVTEGGATQDFCSEKNALFIEAVPYRNVKINDRHVNAYQAPILDSLITHLNVCAQDKPFSESQRLQNAASIAKNFTWAKAADTISRLFTQSNDCNTSTSQITGALHEEPQYCN”: the protein production result is recorded as “failed”.
As for “MRDLLNDLSEGLSHPDPILRAQIQMQKPLPKRFYKDVTVADVEEGGFTILLDGKPLRTPAKKPLVAPSRALADLLRDEWDAQKEVVNPVVMPVSRHVNTAIDGIASDTQAVFEDILRFSSSDLLCYRAGDPEALVARQTDYWDPVLDWATNVLGARFILVEGVMHRDQPREAIAAFAVTLKKYDTPIALAALHTMTSLTGSAILALALAEGELTLEEAWALAHLDEDWTAEQWGEDEEALERRAVRLIDMRAALNVLESLKSAS”, the protein production entry is reported as “not failed”.
For the sequence “MRDPRLAPFRAPALAFAALLLVSAASGAVLFVLKLGTTAARVQEFYLGSEARFTAPRTLGGILEVAVPHLVAVPLVLFAVAHLVAFTRALRPRPYAALVRLSFGCALAGALAGLGIRFVAPWLAWVKIGAFVGLEAALLAWAALLVGLFLPDRAEAHARRAAAADGASPQRVPGAPRRD”, the protein production result is listed as “failed”.
Then “MRDTRESRLLLVLLVAIAFALITVDIRGGQDSPVDGARQAAATVFGPIENGVSSAVDPVGNAVAAVRDSGSRHDRIAQLEHDNAALKAKLGSDDRNRSRLKQLNKMIRVAGEGQYGIKGAEVIGIGAAQGFSWTVTIDVGANDGIKRDMTVLNGDGLVGRVTTVGPNAATVLLANDPDFTVGTRMESSDELGFASGQGDRPLRVQLLNGKAKVVKGDRLVTFGSQADRPFVPGVPVGVVSRVDPSGGDLTRTVYVTPYVSFTKLDIVGVVVAAPKKDPRDEVLPPKPRPTPTPTVTVTVTPSANASADGQQQQQ”, with “failed”; and “MRDTTWHVPEDDLRAYVQGELAPPRLWSADTHLAACERCRAALAEAGDPVALDAAWERLDAELDAPRPGMFESLLVRAGVADHTARLLTATPVLRRSWLGAVAFLLVMTVGIVLTVDSPALFLALAPLLPLAGVALSYGPVLDPTYEMAVVAPLHGFRLLLIRTLAVLATGLLLNGLATLALPGYGLRALAWLLPALALTGTGLALTPRLGPVLAPALTGGAWIGLLLVAQARTHETLAPFTMAGQGAAAVVAALAAGLLYRTRDRFDSVAARLPFAHLPGGGAV”, with “failed”; and “MRDWPAFLLALLVAFALWYSLQERAPVVERSLKVPLQVVGLGEGRRALGLPREVLLRLRGPAPLLEGRALPVSAYLDLSGAEGEVVREVRVAAPQGVEVLEVVPARVGVVVEVEAQRQIPVEVLAQGAWVLTDPAFVEAVGPESQVEAAVSAVGLDLGDEVVLFPLGPEGPLEGVELRPNRVRVVERREALFLKEVPLSLNPPPGRRLLDYAPKTVRLVGPREALEGLAGVTATLQEALGPGEVEVAVAPDLPPGVHTLGPVRVRVALELEHHHHHH”, with “failed”.
For “MREAGDAIARLRTLRDAAGRLVASRASLLRRAPVGLVVAAVVIPLVGCDTGPNFWFHKRASACPRPQVAQGVSGQFNQQQQEIRALRQGGFRGDFFAQLELARRYEGQRAVDKNLEDPVEAAVWYAMALANSGGYAPIAAYERRGKESRAVSRFDDCRAFERRSAYGALDRLLSRMSTEEREKVRNRVIYILSTQSADGFRTLARMHDGYFGPFGEPSDNLQAIEAYGKPSQPGAPAALDLFRRNDVDAYLYNYLAVQTGDVSAYVMLKDFERSSPQRASYGSFVETKAKRWIPPYEFYPPESPDSGVPHSDEADLSGEARESALYRIAELPFVHVGESLAYLRVIPTAVLDEKMLSVTEVQTLQSMIGRPNTGRLAPIEKVRAVQYAAVNGSSKAQLVLAVMYSEGVGVPRDYARAYHWYEEAERQGSAEAKYAMSTFFSLGLQGVADQDRAKAVVYQIDGALAGFKPSAWRLQQLLAQVSRPPRAAGERPQPRPIYGADDYRAAPRADDRDPRQDQPGSDRGGRPYNEGNY”, the protein production entry was “failed”.
As to “MREDAARDRMRGFGFHEHVISESIKELLEVYEDQWFLIEDDSYGPLLAICLEKQEEKEKQLAEVQANQLPENHNEEMAEEEQPNQLAVEIHEEEKEQEQDMHIEYGRDQADELSINSEAVNDPSPAAIHLGEASSDYAQSSVRGVENLHCGWLIDEEETDPEEETDPEEKETEPEDPKEKETEPEEDSDGDDDEIIQLTPEPLCEELQELLREVRGQKRRKKEMRWDK”, the protein production result is on record as “failed”.
Regarding “MREEHSPVRDGRRSGGLRSLIDPRFLSSFALNDGGSISGRRSSYLKLPPQGRIKLSVVKLNGSLFDVEVAKDCSVAELKRAVEQVFTISPLEGHGMISWSHVWGHFCLCYRDQRLVNDKTSIRYLGLNDGDQLHFVRHLSIDHSPMNKRSKSPSCKRYLELDVSSIVNEIQIQNQNQNGVDDVAEKCYPGAQDELPAAESRLVNLIKGWLPYAGRWGVSRKGPECRSGPSRFSLKHFGGRPKM”, the protein production result is listed as “failed”.
“MREEKIREALNAHWQASAAGDFDAEHDIYDDDAICDYPQSGERILGRMNLQALRSHHPGKPAGFEVRRIQGEGNLWITEYSISYNGRPAYTVSIMEFRNGKVVHETQYFSDPFEAPGWRSQWVQQIG”: the protein production result is “not failed”.
Turning to “MRELTSNEMNNVSGGDLASRLEASIVGSVAGFFAGSIWGGTRGGDGGGILGVGSIGQGVGMIYGGIAGAIGGAIGAFVIDKTLTYTYTTGFMNSLFSGTFAK”, the protein production entry was “failed”.
“MREMQIMSQPEQSRLDLFIDRMVSQRACLEHAIAQTAGLSGPVYELGLGNGRTYHHLRQHVQGREIYVFERAVASHPDSTPPEAQLILGDIRETLPATLERFGATASLVHADLGGHNREKNDRFARLISPLIEPHLAQGGLMVSSDRMYFEGLEELPLPPGAVVGRCFIYRRG”: the protein production entry was “not failed”.
As to “MRENSTKPPQPHISEPADVAESRFISVAIPTFRRPDTIRRAIDSVLHQDFSNWELIVSDDEGPDGQTWAMLTDYARADPRIRIVENRRGRGQVENTNNVMLACRGSWIKLLHDDDWLAPKALGTFAQVAQQYPSAAFITCATNRVEDDRVKLRSARPGKKHVTVCSSQQTLKDLYLVRTTRSFGIIPSSLLVNSIVVQNGCLMRTYKSITAGVDQLFFIDLARHGDMVMIEDGLIFYDATNHSSVTASTTFDDVDRETIDLKHLTWSLIEDKHELPDPETIAGALQVARLRSRFRHQPWGSTIRHALQIFHPSVTKAVNQDIFARVQAVLRRRLRRTNW”, the protein production entry was “failed”.
